From paper PMC8065039 come the findings set out here.

As a reminder, the Kd is the free concentration of one partner at which half of the binding sites on the other are occupied at equilibrium, for simple one-to-one binding. Higher therefore signals weaker binding. By IC50 is commonly meant the point on the concentration scale where inhibition reaches its midpoint.

In test [1] the target is Gama Fc Receptor 1 (CD64) (human) (UniProt P12314). The test can be described thus: SPR. In general terms: SPR reads the build-up and loss of mass on a sensor chip optically.
Chain of Gama Fc Receptor 1 (CD64) (human) (P12314 16-374): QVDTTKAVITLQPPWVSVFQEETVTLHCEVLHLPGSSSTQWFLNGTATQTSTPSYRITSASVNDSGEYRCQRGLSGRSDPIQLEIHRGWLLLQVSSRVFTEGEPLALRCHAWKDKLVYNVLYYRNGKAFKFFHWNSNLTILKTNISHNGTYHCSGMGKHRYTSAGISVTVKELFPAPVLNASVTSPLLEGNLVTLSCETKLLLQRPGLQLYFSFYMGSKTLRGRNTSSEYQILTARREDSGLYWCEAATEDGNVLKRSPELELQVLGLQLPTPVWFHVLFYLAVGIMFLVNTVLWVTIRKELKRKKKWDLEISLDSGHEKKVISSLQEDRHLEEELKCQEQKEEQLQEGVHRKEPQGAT
In another test the target is FcγRIIA R167 (human) (UniProt P12318). The test can be described thus: SPR.
Chain of FcγRIIA R167 (human) (P12318 34-217 H167R): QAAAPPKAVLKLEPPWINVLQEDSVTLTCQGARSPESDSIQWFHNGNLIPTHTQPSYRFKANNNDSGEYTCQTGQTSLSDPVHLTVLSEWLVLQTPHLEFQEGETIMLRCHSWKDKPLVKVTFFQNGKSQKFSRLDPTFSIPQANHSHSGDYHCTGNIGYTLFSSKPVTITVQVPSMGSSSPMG
The target in a further test is FcγRIIB/C (human) (UniProt P31994). The test can be described thus: SPR.
Chain of FcγRIIB/C (human) (P31994 43-217): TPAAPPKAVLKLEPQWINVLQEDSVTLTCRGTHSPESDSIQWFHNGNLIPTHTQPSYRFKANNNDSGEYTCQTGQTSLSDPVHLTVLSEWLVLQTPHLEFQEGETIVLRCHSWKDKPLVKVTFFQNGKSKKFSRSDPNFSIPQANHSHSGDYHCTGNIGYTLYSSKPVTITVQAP
A further test has as its target C1q (human) (UniProt P02745). The test can be described thus: ELISA; C1q binding ELISA: plates coated with 5 ug/mL CA521 subtypes or OPDIVO (IgG4), fourfold serial dilutions starting at 40 ug/mL, 2 h at 37 C, C1q detected by HRP anti-human C1q; x axis of the figure: antibody concentration (nM); duplicate. In general terms: An ELISA detects its analyte on a solid surface through an enzyme-linked reagent.

Chain of C1q (human) (P02745 23-245, chain 1 of 3): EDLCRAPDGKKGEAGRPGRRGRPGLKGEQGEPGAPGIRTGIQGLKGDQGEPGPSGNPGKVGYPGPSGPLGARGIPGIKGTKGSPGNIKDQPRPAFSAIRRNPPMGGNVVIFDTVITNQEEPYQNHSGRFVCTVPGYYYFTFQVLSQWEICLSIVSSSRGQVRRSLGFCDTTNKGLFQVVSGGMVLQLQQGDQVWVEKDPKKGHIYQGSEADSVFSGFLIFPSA
Chain of C1q (human) (P02746 28-253, chain 2 of 3, further chain): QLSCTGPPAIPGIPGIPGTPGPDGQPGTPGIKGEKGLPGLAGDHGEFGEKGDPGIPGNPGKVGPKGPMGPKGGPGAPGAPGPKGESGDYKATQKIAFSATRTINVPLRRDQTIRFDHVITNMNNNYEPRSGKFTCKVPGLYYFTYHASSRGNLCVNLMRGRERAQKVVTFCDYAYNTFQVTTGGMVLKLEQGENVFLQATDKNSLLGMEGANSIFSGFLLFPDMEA
Chain of C1q (human) (P02747 29-245, chain 3 of 3, further chain): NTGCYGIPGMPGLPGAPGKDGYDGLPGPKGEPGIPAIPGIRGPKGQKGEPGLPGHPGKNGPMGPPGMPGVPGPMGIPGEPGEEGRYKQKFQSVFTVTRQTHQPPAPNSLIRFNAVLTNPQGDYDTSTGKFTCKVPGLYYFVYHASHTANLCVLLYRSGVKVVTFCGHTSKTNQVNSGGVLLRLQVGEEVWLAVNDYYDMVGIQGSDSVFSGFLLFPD

With CA521(IgG1) (from UniProt P01857), the equilibrium dissociation constant (Kd) is 3.12 nM in test [1], 5110 nM with FcγRIIA R167 (human) and 20400 nM in the test with FcγRIIB/C (human).
In turn, Opdivo (IgG4) (antibody) yielded an IC50 in the test with C1q (human) of 35.9 nM.
